Assay results: patent US20190161551A1 (Regeneron, published 2019)

What was measured:
[1] = target: T1, human TrkB extracellular domain expressed with a C-terminal mouse IgG2a Fc tag (human); assay: BLI Octet, captured hTrkB.mFc, 300 nM mAb (BDNF run)
T1 construct: also called hTrkB-mFc; hTrkB.mFc
Procedure: (§1) Blocking of anti-human TrkB or anti-mouse TrkB antibodies from binding to TrkB by BDNF or NT-4 was evaluated using a real-time bio-layer interferometry (BLI) based Octet HTX instrument. The entire study was performed in 10 mM HEPES pH 7.4, 300 mM NaCl, 3 mM EDTA, 1 mg/mL BSA, 0.02% NaN3 and 0.05% v/v Surfactant Tween-20 (HBS-EBT running buffer) at 25° C. All the samples were dispensed in a 384 tilted well plate and the plate was placed on the orbital shaker with the shake speed of 1000 rpm. hTrkB.mFc was captured on anti-mFc (AMC) Octet sensors while hTrkB.hFc or mTrkB.hFc were captured on anti-hFc (AHC) Octet sensors by dipping in wells containing 10 μg/mL of TrkB reagents for 2 minutes. hTrkB.mFc or hTrkB.hFc captured Octet biosensors were saturated by dipping in wells containing 20 nM of BDNF, hNT-4, or mNT-4 for 2 minutes followed by dipping Octet biosensors in wells containing 300 nM of different TrkB mAbs for 4 minutes. Binding of TrkB mAbs to the complex of TrkB and BDNF, hNT-4, or mNT-4 was determined using Scrubber 2.0c analysis software.

[2] = target: T1, human TrkB extracellular domain …; assay: BLI Octet, captured hTrkB.mFc, 300 nM mAb (hNT-4 run)
Procedure: as §1

[3] = target: T2, human TrkB extracellular domain (aa Cys32-His430) expressed with the Fc portion of human IgG1 at the … (human); assay: competition ELISA, 500 pM hTrkB-hFc pre-mixed with mAb, plate-coated hNT-4
T2 construct: also called hTrkB-hFc; hTrkB.hFc
Procedure: Experiments were carried out using the following procedure. Human BDNF or NT-4 were separately coated at a concentration of 0.5 μg/mL or 2 μg/mL, respectively, in PBS on a 96-well microtiter plate overnight at 4° C. […] Blocking solution and dilution buffer contained 5% (w/v) solution of BSA in PBS for assay with BDNF coat, or 0.5% (w/v) solution of BSA in PBS for assay with NT-4 coat. On separate microtiter plates, a constant amount of 500 pM of hTrkB-hFc protein was added to serial dilutions of antibodies with final concentrations ranging from 1.7 pM to 100 nM, and solutions with no antibody present. (The constant concentration of hTrkB-hFc for antibody inhibition assays was selected from the approximate midway point within the linear portion of individual binding curves of hTrkB-hFc to plate-coated hBDNF or hNT-4). After one hour incubation at room temperature, antibody-protein complexes with 500 pM constant concentration of hTrkB-hFc protein were transferred to microtiter plates coated with hBDNF or hNT-4. After one hour incubation at room temperature, the wells were washed, and plate-bound hTrkB-hFc was detected with anti-human Fcγ fragment specific goat polyclonal antibodies conjugated with horseradish peroxidase (JacksonImmunoResearch). The plate was then developed using TMB substrate solution (BD Biosciences) according to manufacturer's recommendation and absorbance at 450 nm was measured on a Victor plate reader (PerkinElmer™).
The ability of anti-TrkB antibodies to block TrkB binding to BDNF or NT-4 was assessed using two competition sandwich ELISAs. Human TrkB-hFc binding to hBDNF or hNT-4 coated on 96-well microtiter plates, in the presence of serially diluted antibodies or no antibody controls, were detected with HRP-conjugated anti-human Fcγ fragment specific goat polyclonal antibodies. IC₅₀ values were calculated and used as the potency indicator of antibody blocking hTrkB-hFc binding to hBDNF or hNT-4. In addition, the maximum blockade of 500 pM hTrkB-hFc with each antibody at the highest tested concentration was calculated and compared.

[4] = target: human TrkB expressed on HEK293/SRE-Luc/hTrkB cells (human, UniProt Q16620 32-822); assay: cell-based or functional assay
[5] = target: mouse TrkB extracellular domain fused to the transmembrane and cytoplasmic domains of human TrkB, expressed … (mouse; human, UniProt Q16620 431-822, limits assumed); assay: cell-based or functional assay
[6] = target: T3, rat TrkB extracellular domain expressed with a C-terminal myc-myc-hexahistidine tag (rat, UniProt Q63604 32-429); assay: blocking ELISA, rat TrkB.mmh pre-mixed with mAb, plate-coated BDNF
T3 construct: also called rTrkB.mmH; rTRKB.mmH
Procedure: (§2) Experiments were carried out using the following procedure. Human BDNF was coated at a concentration of 0.5 μg/mL (for blocking mouse TrkB.hFc interaction) or 0.3 μg/mL (for blocking rat TrkB.mmh interaction) in PBS on 96-well microtiter plate and incubated overnight at 4° C. […] In a 96-well dilution plate, 850 pM mouse TrkB.hFc or rat TrkB.mmh was mixed with the three-fold serially diluted anti-mouse TrkB antibodies and control antibody. The final antibody concentrations ranged from 1.69 pM to 100 nM. The protein-antibody mix was incubated at room temperature (RT) for 1 hour. The pre-bound mix was then transferred in duplicates to microtiter plates coated with BDNF. A control containing assay buffer alone was included to calculate the baseline of the assay. The ELISA plates were incubated at RT for 1 hour and then washed with plate washing solution. Plate-bound mouse TrkB.hFc was detected with HRP-conjugated goat anti-human Fcγ fragment specific antibody (Jackson Immunoresearch) and rat TrkB.mmh was detected with HRP-conjugated anti-histidine antibody (Qiagen). The plates were incubated with detection antibody for 1 hour at RT and then washed with plate washing solution. The assay plates were developed with TMB colorimetric substrates according to the manufacturer's recommended procedure.
(§3) The absorbance at 450 nm for each well was recorded and plotted as a function of the concentration of antibody. Data was analyzed in GraphPad Prism software using a four-parameter logistic equation over an 11-point dose response curve and IC₅₀ values were calculated. […] Percent blockade at maximum concentration of the antibody tested was calculated as an indicator of the ability of the antibodies to block the binding of TrkB to BDNF on the plate relative to the baseline of the assay. Binding signal of 850 pM mouse or rat TrkB in absence of the antibody was defined as 100% binding or 0% blocking. The baseline signal of assay buffer alone was defined as 0% binding or 100% blocking.

[7] = target: T4, mouse TrkB.hFc (mouse); assay: blocking ELISA, mouse TrkB.hFc pre-mixed with mAb, plate-coated BDNF
T4 construct: also called mTrkB.hFc; mTrkB-hFc
Procedure: as §2, §3

T1 sequence (chain, as listed by the source limits assumed): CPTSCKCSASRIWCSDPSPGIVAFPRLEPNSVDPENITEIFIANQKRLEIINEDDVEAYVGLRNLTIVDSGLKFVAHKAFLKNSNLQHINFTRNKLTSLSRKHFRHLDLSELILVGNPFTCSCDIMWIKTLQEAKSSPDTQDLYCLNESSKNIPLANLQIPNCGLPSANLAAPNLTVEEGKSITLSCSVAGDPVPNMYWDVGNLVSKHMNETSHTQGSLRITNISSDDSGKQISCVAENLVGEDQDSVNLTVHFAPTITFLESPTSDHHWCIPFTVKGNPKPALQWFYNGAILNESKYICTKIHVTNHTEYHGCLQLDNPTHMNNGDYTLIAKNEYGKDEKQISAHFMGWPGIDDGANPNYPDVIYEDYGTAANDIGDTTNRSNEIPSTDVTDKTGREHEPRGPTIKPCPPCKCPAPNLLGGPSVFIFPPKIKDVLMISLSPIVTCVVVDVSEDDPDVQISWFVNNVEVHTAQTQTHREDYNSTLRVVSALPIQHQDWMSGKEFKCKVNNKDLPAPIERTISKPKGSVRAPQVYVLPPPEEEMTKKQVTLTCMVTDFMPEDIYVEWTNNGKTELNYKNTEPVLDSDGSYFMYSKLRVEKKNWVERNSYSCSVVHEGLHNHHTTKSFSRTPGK
T3 sequence (Q63604 other isoform, or with tags, fused parts or gaps): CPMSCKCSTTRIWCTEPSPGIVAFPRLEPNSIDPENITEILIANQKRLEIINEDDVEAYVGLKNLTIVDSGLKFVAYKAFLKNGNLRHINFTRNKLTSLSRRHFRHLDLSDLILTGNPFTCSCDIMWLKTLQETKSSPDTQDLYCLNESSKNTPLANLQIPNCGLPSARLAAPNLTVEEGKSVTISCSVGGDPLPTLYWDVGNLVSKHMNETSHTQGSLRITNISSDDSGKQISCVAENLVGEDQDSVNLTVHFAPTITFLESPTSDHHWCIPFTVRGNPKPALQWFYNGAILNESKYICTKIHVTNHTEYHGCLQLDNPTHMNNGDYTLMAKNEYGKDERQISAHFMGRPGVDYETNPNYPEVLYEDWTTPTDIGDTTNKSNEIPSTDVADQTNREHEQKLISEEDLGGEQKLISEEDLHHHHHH
T4 sequence (chain, as listed by the source limits assumed): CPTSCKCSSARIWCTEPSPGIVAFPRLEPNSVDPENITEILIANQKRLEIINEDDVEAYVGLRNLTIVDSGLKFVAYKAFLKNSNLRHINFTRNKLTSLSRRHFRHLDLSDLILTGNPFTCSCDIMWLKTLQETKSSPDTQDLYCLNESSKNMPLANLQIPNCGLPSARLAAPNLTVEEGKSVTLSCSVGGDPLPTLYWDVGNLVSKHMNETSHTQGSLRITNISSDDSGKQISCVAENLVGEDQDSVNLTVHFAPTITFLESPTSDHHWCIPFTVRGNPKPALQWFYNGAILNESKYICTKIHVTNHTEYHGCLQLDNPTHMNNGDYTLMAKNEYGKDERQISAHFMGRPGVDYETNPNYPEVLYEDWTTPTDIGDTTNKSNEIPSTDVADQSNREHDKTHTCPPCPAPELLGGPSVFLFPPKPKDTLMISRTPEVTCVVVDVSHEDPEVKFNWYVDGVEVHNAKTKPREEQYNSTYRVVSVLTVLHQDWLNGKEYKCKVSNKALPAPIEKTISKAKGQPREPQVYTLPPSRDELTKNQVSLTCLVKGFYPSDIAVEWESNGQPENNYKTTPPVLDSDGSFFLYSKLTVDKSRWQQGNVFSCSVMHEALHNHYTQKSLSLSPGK
T2 sequence (chain, as listed by the source limits assumed): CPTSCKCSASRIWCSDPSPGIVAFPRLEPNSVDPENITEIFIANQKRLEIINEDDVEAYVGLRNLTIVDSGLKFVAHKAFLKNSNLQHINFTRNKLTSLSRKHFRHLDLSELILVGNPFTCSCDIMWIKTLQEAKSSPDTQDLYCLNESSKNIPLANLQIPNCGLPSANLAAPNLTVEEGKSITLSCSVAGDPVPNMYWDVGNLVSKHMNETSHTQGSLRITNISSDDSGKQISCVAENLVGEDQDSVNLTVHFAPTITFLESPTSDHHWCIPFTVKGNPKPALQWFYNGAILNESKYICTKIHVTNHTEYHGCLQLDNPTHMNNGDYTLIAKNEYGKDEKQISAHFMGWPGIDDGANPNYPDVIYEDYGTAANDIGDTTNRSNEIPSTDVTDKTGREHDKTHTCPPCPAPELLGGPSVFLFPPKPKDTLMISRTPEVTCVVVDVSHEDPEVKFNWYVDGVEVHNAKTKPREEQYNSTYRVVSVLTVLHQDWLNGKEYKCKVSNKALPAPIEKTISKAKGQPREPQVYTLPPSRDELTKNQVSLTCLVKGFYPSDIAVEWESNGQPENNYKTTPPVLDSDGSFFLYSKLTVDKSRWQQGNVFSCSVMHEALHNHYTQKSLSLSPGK
human TrkB expressed on HEK293/SRE-Luc/hTrkB cells, sequence (Q16620 32-822): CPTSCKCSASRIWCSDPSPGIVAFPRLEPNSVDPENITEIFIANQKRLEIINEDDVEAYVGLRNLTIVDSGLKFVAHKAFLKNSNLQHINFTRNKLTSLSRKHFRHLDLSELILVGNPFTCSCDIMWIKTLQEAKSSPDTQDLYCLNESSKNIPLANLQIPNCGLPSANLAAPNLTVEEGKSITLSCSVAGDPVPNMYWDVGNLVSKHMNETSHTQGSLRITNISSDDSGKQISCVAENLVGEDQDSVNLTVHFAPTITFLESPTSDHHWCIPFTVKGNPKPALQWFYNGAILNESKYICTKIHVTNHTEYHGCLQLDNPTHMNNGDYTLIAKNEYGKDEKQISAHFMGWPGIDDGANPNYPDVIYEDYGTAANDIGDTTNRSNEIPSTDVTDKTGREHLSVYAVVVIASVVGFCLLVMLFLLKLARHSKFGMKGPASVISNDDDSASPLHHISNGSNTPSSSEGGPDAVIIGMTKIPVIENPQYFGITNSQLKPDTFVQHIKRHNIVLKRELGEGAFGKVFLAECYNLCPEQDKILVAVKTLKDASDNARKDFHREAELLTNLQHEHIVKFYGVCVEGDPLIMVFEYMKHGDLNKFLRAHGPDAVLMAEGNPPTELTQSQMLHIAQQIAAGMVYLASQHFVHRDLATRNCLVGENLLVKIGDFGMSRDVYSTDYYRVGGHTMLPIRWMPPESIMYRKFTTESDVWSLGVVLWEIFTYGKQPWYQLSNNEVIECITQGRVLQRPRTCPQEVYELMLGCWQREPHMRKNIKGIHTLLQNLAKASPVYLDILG
mouse TrkB extracellular domain fused to the transmembrane and cytoplasmic domains of human TrkB, expressed …, sequence (Q16620 other isoform, or with tags, fused parts or gaps limits assumed, form in doubt): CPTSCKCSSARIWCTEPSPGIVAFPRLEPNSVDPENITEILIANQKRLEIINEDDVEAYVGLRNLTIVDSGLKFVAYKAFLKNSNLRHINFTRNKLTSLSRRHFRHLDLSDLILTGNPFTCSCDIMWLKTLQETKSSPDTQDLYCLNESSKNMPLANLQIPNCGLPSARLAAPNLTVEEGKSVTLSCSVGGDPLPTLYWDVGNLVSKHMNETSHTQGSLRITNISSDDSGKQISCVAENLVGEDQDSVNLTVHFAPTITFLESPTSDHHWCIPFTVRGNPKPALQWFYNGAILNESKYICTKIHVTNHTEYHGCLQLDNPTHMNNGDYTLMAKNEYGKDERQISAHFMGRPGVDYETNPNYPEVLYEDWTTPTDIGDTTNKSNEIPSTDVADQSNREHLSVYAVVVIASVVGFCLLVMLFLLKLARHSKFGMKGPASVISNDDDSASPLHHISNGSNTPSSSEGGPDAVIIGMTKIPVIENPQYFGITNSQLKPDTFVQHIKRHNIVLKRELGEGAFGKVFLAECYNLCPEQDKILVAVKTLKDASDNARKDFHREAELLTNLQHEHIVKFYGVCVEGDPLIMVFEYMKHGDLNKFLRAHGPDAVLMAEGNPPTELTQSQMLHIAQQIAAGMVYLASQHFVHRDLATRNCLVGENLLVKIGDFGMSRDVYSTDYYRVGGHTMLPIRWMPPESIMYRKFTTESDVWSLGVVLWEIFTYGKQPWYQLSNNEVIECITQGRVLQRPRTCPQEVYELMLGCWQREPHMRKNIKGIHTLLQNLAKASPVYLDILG

B1: H4H9814P (antibody, human IgG4 S228P, kappa, V domains shown)
VH: EVQLVESGGGLVQPGGSLKLSCTASGFTFSGSVIHWVRQASGKGLEWIGRIRNKANSYATAYGASVTGRFTISRDDSKNTAYLQMNSLKTEDTAVYYCTFPGVVGRGGFDYWGQGTLVTVSS
VL: DIVMTQSPDSLAVSLGEGATINCMSSQSVLFSSNNKNYLAWYQQKPGQPPKLLFYWASTRESGVPDRFGGSGSGTDFSLTINSLQTEDVAVYYCLQYYSIPWTFGQGTKVEIKR
notes: Fully human anti-human TrkB agonist antibody, human IgG4 Fc; also called H4H9814P-L1
Question: What does the source list for B1?
Answer: mAb Binding (nm) [1]: 0.18 nm; mAb Binding (nm) [2]: 0.18 nm; % Blockade with 100 nM antibody [3]: 38%

B2: H1M8037C (antibody, mouse IgG1, kappa, V domains shown)
VH: QVQLVQSGAEVKKPGASVKVSCKASGYTFTNYDIIWVRQAPGQGLEWMGYINPYNDGTKYNEKFKGRVTMTRDTSTSTVYMELSSLRSEDTAVYYCARLLKYRRFRYYAIDYWGQGTTVTVSS
VL: DIQMTQSPSSLSASVGDRVTITCRTSENVYSNLAWYQQKPGKAPKLLIYAASNLQSGVPSRFSGSGSGTDYTFTISSLQPEDIATYYCQHFWGSPFTFGQGTKLEIKR
notes: captured by anti-mFc in SPR; also called Comparator; comparator anti-TrkB monoclonal antibody
Question: What does the source list for B2?
Answer: Activation (%), SRE-luciferase, 100 pM BDNF [4]: 79%; Activation (%), SRE-luciferase, No BDNF [4]: 80%; EC50 (M), SRE-luciferase, 100 pM BDNF [4]: 1.1e-10 M; EC50 (M), SRE-luciferase, No BDNF [4]: 5.7e-11 M; Activation (%), SRE-luciferase, 100 pM BDNF [5]: 69%; Activation (%), SRE-luciferase, No BDNF [5]: 85%; EC50 (M), SRE-luciferase, 100 pM BDNF [5]: 4.2e-11 M; EC50 (M), SRE-luciferase, No BDNF [5]: 4.3e-11 M; % Blockade with 100 nM antibody [6]: 83.3%; IC50 [6]: 1.42 nM; % Blockade with 100 nM antibody [7]: 91.5%; IC50 [7]: 0.18 nM; % Blockade with 100 nM antibody [3]: 95%; IC50 [3]: 0.045 nM

B3: H4H9780P (antibody, human IgG4 S228P, kappa, V domains shown)
VH: QVQLVESGGGVVQPGRSLRLSCAASGFSFSSFGMHWVRQAPGKGLEWVSVISYDGINTYYTDSVKGRFTISRDNSKNTLYLQMNGLRAEDTALYYCVQGSIGTVFEYWGQGTLVTVSS
VL: DIQMTQSPSSLSASVGDRVTITCRASQGISNYLAWYQQKPGKVPKLLIYAASTLQSGVPSRFGGSGSGTDFTLTISSLQPEDVATYYCQKYTSAPFTFGPGTKVDIKR
notes: Fully human anti-human TrkB agonist antibody, human IgG4 Fc; also called H4H9780P-L1
Question: For B3, which “mAb Binding (nm)” value [1] is on record?
Answer: 0.18 nm

Question: And the “mAb Binding (nm)” value [2]?
Answer: 0.18 nm

Question: And the “% Blockade with 100 nM antibody” value [3]?
Answer: 80%

Question: What about the IC50 [3] of the same binder?
Answer: 0.18 nM

B4: H4H9816P2 (antibody, human IgG4 S228P, kappa, V domains shown)
VH: EVQLVESGGGLVQPGGSLTLSCAASGFNFRDYEMIWVRQTPGKGLEWISYISNSGYTIYYADSVKGRFTISRDNARNSIYLQVNSLRAEDTAVYYCSRRTTMIRGIRAYYYYGLDVWGQGTTVTVSS
VL: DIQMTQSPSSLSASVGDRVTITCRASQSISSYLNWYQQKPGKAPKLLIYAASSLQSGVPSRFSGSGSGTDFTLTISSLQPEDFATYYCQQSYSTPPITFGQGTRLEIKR
notes: Fully human anti-human TrkB agonist antibody, human IgG4 Fc; also called H4H9816P-L1
Question: How did the “mAb Binding (nm)” value [1] turn out when B4 was run?
Answer: 0.19 nm

Question: And the “mAb Binding (nm)” value [2]?
Answer: 0.18 nm

Question: And the “% Blockade with 100 nM antibody” value [3]?
Answer: -123%

B5: M2aM14173N (antibody, mouse IgG2a, kappa, V domains shown)
VH: NVSLVESGGGSVKPGGSLQLSCAASGFTFSSSAMSWIRQTPEMRLEWVATISDRGSYTYYPDSVEGRFTISRDNAKNILYLQMSHLMSEDTAMYYCARGKGEKAYYTAFFAYWGQGSLVTVSA
VL: DIQMTQSPASLSASVGETVTITCRASENIYSYLAWYQQKPGKSPHLLVHNAETLAEGVPSRFSGSGSGPQFSLKINSLQPGDSGTYYCQHHYSSPWTFGGGTKLEIKR
notes: Anti-mouse TrkB antibody from hybridoma, mouse IgG2a Fc; also called surrogate anti-mouse TrkB antibody
Question: Which “Activation (%), SRE-luciferase, 100 pM BDNF” value (“Activation (%) … 100 pM BDNF” for short) [4] does the source give for B5 here?
Answer: 59%

Question: And the “Activation (%), SRE-luciferase, No BDNF” value [4]?
Answer: 2%

Question: And the “Activation (%) … 100 pM BDNF” value [5]?
Answer: 74%

Question: What about the “Activation (%), SRE-luciferase, No BDNF” value [5] of the same binder?
Answer: 94%

Question: And the “EC50 (M), SRE-luciferase, 100 pM BDNF” value [5]?
Answer: 1.7e-11 M

Question: And the “EC50 (M), SRE-luciferase, No BDNF” value [5]?
Answer: 3.6e-11 M

Question: And the “% Blockade with 100 nM antibody” value [6]?
Answer: 80.7%

Question: What about the IC50 [6] of the same binder?
Answer: 3.81 nM

Question: What about the “% Blockade with 100 nM antibody” value [7] of the same binder?
Answer: 29.7%

B6: M2aM14179N (antibody, mouse IgG2a, kappa, V domains shown)
VH: EVQLQQSGPELVKPGASVKISCKASGYTLTDYYMNWVKQSHGKSLEWIGDINPNNGGTSYNQKFKGKATLTVDKSSSTAYMELRSLTSEDSAVYYCARGAYYSNYFDYWGQGTTLTVSS
VL: DIVMSQSPSSLAVSAGEKVTMSCKSSQSLLNSRTRKNYLAWYQQKPGQSPKLLIYWASTRESGVPDRFTGSGSGTDFTLTISSVQAEDLAVYYCKQSYILFTFGSGTQLEIKR
notes: as for B5
Question: Which “Activation (%) … 100 pM BDNF” value [4] does the source give for B6 here?
Answer: 52%

Question: What about the “Activation (%), SRE-luciferase, No BDNF” value [4] of the same binder?
Answer: 4%

Question: And the “Activation (%) … 100 pM BDNF” value [5]?
Answer: 75%

Question: What about the “Activation (%), SRE-luciferase, No BDNF” value [5] of the same binder?
Answer: 87%

Question: And the “EC50 (M), SRE-luciferase, 100 pM BDNF” value [5]?
Answer: 2.1e-11 M

Question: And the “EC50 (M), SRE-luciferase, No BDNF” value [5]?
Answer: 3.4e-11 M

Question: And the “% Blockade with 100 nM antibody” value [6]?
Answer: -38.1%

Question: What about the “% Blockade with 100 nM antibody” value [7] of the same binder?
Answer: 11.6%
